In patent US9327022 (NATIONAL RESEARCH COUNCIL OF CANADA, dated 2016):

How the values were obtained:
bovine serum albumin [1] = molecular target: T1, bovine serum albumin (bovine, UniProt P02769 25-607); experiment: SPR (Biacore 3000), immobilized BSA
T1 construct: also called BSA; Bovine albumin
Protocol: (§1) 1700 RUs of BSA (Sigma) were immobilized on research grad CM5-sensorchip (BIACORE). Ethanolamin blocked surface was used as a reference. Immobilizations were carried out at the protein concentrations of 50 µg/ml in 10 mM acetate pH 4.5 using amin coupling kit supplied by the manufacturer. Antibodies were passed through Superdex 75™ (GE Healthcare) column to separate monomer prior to BIACORE analysis.
(§2) In all instances, analyses were carried out at 25 C in HBS-E buffer (10 mM HEPES, 150 mM NaCl, and 3 mM EDTA, pH 7.4) supplemented with 0.005% surfactant P20 at a flow rate of 20 µl/min. The surfaces were regenerated with 100 mM HCl (3 seconds). Data were analyzed with BIAevaluation 4.1 software.

bovine serum albumin [2] = molecular target: T1, bovine serum albumin; experiment: SPR (Biacore 3000), immobilized BSA; remark: listed apart in the source
Protocol: as §1, §2

murine serum albumin = molecular target: T2, murine serum albumin (murine, UniProt P07724 25-608); experiment: SPR (Biacore 3000), immobilized albumin
T2 construct: also called Murine albumin
Protocol: as §1, §2

porcine serum albumin = molecular target: T3, porcine serum albumin (porcine, UniProt P08835 25-607); experiment: SPR (Biacore 3000), immobilized albumin
T3 construct: also called Porcine albumin
T3 sequence (P08835 25-607 limits assumed): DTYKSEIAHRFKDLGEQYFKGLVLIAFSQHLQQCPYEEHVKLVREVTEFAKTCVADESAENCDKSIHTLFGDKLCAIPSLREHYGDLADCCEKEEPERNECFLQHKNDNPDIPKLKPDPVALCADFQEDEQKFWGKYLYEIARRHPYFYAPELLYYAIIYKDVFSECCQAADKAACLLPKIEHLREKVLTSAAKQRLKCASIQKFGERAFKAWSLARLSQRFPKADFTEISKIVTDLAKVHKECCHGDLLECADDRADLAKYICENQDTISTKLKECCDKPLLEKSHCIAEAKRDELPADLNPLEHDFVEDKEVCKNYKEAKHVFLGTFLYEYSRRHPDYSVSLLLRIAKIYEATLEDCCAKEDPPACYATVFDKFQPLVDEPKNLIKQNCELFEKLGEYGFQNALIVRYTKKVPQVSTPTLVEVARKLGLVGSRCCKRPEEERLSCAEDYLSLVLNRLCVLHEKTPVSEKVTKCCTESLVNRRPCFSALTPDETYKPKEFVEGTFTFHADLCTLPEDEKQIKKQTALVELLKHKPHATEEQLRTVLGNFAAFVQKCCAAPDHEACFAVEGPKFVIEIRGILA
Protocol: as §1, §2

sheep serum albumin = molecular target: T4, sheep serum albumin (sheep, UniProt P14639 25-607); experiment: SPR (Biacore 3000), immobilized albumin
T4 construct: also called Sheep albumin
T4 sequence (P14639 25-607 limits assumed): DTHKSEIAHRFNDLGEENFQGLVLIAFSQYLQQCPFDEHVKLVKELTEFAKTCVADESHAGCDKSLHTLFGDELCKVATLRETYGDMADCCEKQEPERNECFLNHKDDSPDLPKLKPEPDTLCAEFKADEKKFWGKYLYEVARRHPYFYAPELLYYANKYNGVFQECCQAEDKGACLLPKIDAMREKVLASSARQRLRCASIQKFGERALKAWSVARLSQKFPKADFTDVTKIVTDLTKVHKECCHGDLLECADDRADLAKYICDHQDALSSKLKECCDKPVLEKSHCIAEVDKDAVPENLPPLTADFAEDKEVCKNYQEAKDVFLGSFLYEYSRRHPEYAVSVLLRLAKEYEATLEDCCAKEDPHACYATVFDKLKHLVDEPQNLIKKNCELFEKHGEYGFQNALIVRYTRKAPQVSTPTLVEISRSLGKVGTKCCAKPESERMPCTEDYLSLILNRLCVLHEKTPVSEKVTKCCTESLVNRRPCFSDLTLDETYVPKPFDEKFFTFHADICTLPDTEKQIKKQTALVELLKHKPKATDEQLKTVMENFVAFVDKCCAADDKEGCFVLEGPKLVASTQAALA
Protocol: as §1, §2

canine serum albumin = molecular target: T5, canine serum albumin (canine, UniProt P49822 25-608); experiment: SPR (Biacore 3000), immobilized albumin
T5 construct: also called Canine albumin
T5 sequence (P49822 25-608 limits assumed): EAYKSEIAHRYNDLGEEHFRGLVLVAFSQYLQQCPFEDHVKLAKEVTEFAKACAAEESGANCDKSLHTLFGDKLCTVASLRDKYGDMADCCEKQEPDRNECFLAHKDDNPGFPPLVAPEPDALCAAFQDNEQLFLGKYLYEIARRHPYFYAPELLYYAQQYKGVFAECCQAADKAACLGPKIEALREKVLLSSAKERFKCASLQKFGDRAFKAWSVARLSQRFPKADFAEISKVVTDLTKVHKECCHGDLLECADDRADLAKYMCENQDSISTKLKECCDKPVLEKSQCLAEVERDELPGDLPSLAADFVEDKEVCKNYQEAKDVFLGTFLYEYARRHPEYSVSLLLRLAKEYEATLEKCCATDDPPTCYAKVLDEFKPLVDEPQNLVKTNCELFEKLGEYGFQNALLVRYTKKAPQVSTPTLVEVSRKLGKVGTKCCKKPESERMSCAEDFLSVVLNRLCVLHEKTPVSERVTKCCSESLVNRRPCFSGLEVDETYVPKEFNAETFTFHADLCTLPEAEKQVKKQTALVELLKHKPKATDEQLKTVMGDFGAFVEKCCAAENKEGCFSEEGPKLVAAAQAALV
Protocol: as §1, §2

goat serum albumin = molecular target: T6, goat serum albumin (goat); experiment: SPR (Biacore 3000), immobilized albumin
T6 construct: also called Goat albumin
T6 sequence (P85295 whole entry, looked up): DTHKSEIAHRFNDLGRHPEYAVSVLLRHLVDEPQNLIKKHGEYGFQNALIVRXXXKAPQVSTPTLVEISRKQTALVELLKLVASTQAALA
Protocol: as §1, §2

guinea pig serum albumin = molecular target: T7, guinea pig serum albumin (guinea pig); experiment: SPR (Biacore 3000), immobilized albumin
T7 construct: also called Guinea pig albumin
Protocol: as §1, §2

bovine serum albumin [3] = molecular target: T1, bovine serum albumin; experiment: SPR (Biacore 3000), immobilized albumin
Protocol: as §1, §2

bovine serum albumin [4] = molecular target: T1, bovine serum albumin; experiment: SPR (Biacore 3000), immobilized BSA, extended dissociation
Protocol: as §1, §2
(§3) Each binding was performed three times, and the obtained data were reproducible.

bovine serum albumin [5] = molecular target: T1, bovine serum albumin; experiment: SPR (Biacore 3000), immobilized BSA, 4 h dissociation time
Protocol: as §1, §2, §3

human serum albumin [6] = molecular target: T8, human serum albumin (human, UniProt P02768 25-609); experiment: SPR (Biacore 3000), immobilized albumin; lower bound of the printed KD range
T8 construct: also called Human albumin
T8 sequence (P02768 25-609 limits assumed): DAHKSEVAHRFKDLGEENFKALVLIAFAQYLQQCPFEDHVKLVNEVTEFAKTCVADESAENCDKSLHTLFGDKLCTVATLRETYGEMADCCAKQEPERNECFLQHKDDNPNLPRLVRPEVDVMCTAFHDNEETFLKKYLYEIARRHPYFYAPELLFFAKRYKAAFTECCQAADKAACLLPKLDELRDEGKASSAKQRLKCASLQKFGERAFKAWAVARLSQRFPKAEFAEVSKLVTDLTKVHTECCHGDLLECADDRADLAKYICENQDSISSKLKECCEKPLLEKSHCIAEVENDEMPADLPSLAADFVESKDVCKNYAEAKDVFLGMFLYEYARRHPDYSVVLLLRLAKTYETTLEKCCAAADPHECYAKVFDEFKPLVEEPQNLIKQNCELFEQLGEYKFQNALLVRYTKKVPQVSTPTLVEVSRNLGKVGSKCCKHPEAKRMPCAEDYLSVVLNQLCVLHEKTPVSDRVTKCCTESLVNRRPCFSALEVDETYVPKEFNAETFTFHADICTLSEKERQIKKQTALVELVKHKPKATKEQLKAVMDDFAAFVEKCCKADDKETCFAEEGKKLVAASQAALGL

human serum albumin [7] = molecular target: T8, human serum albumin; experiment: SPR (Biacore 3000), immobilized albumin; upper bound of the printed KD range

T1 sequence (P02769 25-607 limits assumed): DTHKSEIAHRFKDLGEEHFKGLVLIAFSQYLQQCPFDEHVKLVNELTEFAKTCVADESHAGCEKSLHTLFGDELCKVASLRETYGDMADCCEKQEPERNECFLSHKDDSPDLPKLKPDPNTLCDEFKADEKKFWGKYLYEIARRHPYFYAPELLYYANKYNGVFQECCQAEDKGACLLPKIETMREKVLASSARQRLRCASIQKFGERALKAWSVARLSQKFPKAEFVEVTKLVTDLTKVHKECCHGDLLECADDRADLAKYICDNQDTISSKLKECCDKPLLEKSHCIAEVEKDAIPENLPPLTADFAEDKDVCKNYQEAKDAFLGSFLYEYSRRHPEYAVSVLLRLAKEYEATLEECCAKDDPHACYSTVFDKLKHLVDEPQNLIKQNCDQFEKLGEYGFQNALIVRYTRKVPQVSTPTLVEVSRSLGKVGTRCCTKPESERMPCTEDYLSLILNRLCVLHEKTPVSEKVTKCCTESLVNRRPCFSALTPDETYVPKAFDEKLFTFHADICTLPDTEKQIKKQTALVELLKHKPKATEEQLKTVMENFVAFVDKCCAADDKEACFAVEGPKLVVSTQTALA

B1: BSA8 (VHH)
VHH: QVKLEESGGGLAQAGGSLRLSCAASERTFIRYTIGWFRQAPGKEREFVGRVNWSGGDTYYADSVKGRFTISRDNAKTTVTLQMSSLKPEDTAVYSCAASPKWSEIPREYIYWGPGTQVTVSS
notes: also called sdAb BSA8; pBSA8 product
B1 gave a koff (bovine serum albumin [1]) of 0.005 s⁻¹ and a Kd (bovine serum albumin [2]) of about 100 nM.

B2: BSA12 (VHH)
VHH: QVKLEESGGGLVQVGDSLRLSCAASGRTFSNYTMAWFRQFPGKEREFVAVVSRGGGATDYADSVKGRFTISRDNAKNTMYLQMNSLKTDTAVYYCAAGTDLSYYYSTKKWAYWGQGTQVTVSS
notes: also called sdAb BSA12; pBSA12 product
B2 showed a Kd (bovine serum albumin [2]) of 0.004 nM, a kon (bovine serum albumin [2]) of 2.5e+06 M⁻¹ s⁻¹ and a Kd (murine serum albumin) of 59 nM. It also gave a koff (murine serum albumin) of 0.16 s⁻¹, a kon (murine serum albumin) of 2.7e+06 M⁻¹ s⁻¹ and a Kd (porcine serum albumin) of 380 nM. It also gave a koff (porcine serum albumin) of 0.22 s⁻¹, a kon (porcine serum albumin) of 680000 M⁻¹ s⁻¹ and a Kd (sheep serum albumin) of 1000 nM. It also gave a Kd (canine serum albumin) of 1400 nM, a Kd (goat serum albumin) of 240 nM and a koff (goat serum albumin) of 0.3 s⁻¹. It also gave a kon (goat serum albumin) of 1.2e+06 M⁻¹ s⁻¹, a Kd (guinea pig serum albumin) of 730 nM and a koff (guinea pig serum albumin) of 0.6 s⁻¹. For the same binder, the kon (guinea pig serum albumin) was 830000 M⁻¹ s⁻¹, the Kd (bovine serum albumin [3]) was 0.0036 nM and the koff (bovine serum albumin [3]) was 9e-06 s⁻¹. For the same binder, the kon (bovine serum albumin [3]) was 2.5e+06 M⁻¹ s⁻¹, the koff (bovine serum albumin [4]) was 1e-05 s⁻¹ and the koff (bovine serum albumin [5]) was 9e-06 s⁻¹. For the same binder, the Kd (human serum albumin [6]) was over 10000 nM and the Kd (human serum albumin [7]) was under 500000 nM.

B3: BSA16 (VHH)
VHH: QVKLEESGGGLVQAGGSLRLSCAPSGRTFRTWRMGWFRQAPGKEREFVAAINLNTGNTYYVDSVKGRFTISGDYAKNTLYLQMNSLKPEDTAVYFCAARSPDSDYVPLSSIDYQYWGQGTQVTVSS
notes: also called sdAb BSA16; pBSA16 product
For B3, the Kd (bovine serum albumin [2]) was 280 nM, the koff (bovine serum albumin [2]) was 0.27 s⁻¹ and the kon (bovine serum albumin [2]) was 1e+06 M⁻¹ s⁻¹.
